This assay addresses C-terminal mycHis-tagged Rp1L1 (1-361), expressed in COS7 cells (mouse) (UniProt Q8CGM2). Nature of the assay: co-IP.
UniProt Q8CGM2, sequence (Q8CGM2 1-361): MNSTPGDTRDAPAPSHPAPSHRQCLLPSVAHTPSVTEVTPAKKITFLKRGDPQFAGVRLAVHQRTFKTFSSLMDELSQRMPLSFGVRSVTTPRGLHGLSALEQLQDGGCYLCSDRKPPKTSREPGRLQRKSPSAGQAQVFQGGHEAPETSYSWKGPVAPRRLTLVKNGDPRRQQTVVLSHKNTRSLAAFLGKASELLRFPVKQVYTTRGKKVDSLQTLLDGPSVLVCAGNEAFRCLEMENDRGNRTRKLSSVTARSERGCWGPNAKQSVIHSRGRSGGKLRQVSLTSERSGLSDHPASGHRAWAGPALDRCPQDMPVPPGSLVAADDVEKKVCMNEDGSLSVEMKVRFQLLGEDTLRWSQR

Regarding “N-terminal FLAG-tagged full-length Rp1, P56716 1-2095”, the percent of FLAG-Rp1 co-immunoprecipitated was determined as 12%.

For the origin of these results see PMC2748320.
